Molecular target: T1, MSH2蛋白 (endogenous, in HCT8 and Biu-87 cell lysates and in human tissue sections) (human, UniProt P43246 2-934)
T1 construct: Endogenous protein; also called MutS homolog 2
Assay: IHC on tonsil tissue

T1 sequence (P43246 2-934 limits assumed): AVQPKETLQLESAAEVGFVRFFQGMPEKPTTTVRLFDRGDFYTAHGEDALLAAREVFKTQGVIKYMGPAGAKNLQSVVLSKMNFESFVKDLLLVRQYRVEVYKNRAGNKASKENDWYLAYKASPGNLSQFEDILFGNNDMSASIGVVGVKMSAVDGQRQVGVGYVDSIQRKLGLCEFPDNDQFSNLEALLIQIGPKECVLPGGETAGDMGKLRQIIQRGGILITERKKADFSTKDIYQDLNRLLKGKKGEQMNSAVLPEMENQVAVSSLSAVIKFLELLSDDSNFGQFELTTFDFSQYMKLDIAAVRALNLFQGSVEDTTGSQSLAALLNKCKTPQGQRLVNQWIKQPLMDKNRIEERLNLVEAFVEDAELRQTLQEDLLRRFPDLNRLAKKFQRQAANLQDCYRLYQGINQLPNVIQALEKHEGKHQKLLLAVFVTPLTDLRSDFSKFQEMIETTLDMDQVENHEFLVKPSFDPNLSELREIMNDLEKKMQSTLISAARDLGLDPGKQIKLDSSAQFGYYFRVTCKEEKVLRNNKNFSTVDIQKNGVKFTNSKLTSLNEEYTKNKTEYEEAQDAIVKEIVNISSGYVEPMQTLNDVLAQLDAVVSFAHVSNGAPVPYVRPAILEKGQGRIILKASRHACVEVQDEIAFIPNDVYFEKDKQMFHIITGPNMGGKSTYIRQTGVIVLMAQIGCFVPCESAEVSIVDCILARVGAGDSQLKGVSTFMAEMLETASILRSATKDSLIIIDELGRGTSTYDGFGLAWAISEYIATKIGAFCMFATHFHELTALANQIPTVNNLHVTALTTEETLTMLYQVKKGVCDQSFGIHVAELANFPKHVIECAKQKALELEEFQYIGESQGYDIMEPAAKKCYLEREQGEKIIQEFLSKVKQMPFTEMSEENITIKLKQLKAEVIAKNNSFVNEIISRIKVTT

B1: 抗MSH2蛋白单克隆抗体(1B11-14-16) (antibody, V domains shown)
VH: QVQLQQSGAELMKPGASVRISCKATGYTFTRYWIEWVKERPGHGLEWIGEILPGSGGTNYNEKFKGKATFTADTSSNTVHMQLNSLTSEDSAVYYCVKREGPYWGRGTLVTVSA
VL: DVLMTQTPLSLPVSLGDQASISCRSSQSIVYRTGSTFLEWYLQKPGQSPKLLIYKVSNRFSGVPDRFSGSGSGTDFTLKISRVEAEDLGVYYCFQGSHLPYTFGGGTKLEIK
notes: also called MSH2(1B11-14-16)单克隆抗体; 1B11-14-16的MSH2
  binding result: binds

Source: patent CN110218251A (FUZHOU MAIXIN BIOTECHNOLOGY DEV CO LTD, dated 2019)
